# Test results reported in patent US20250320281A1.
# What was measured:
# [1] = target: HIV-1 Env of isolate MGRM-C-010 (HIV-1); assay: cell-based or functional assay
# [2] = target: HIV-1 Env of isolate MGRM-C-014 (HIV-1); assay: cell-based or functional assay
# [3] = target: HIV-1 Env of isolate MGRM-C-025 (HIV-1); assay: cell-based or functional assay
# [4] = target: HIV-1 CMU02 Env (pseudovirus) (HIV-1); assay: cell-based or functional assay
# [5] = target: HIV-1 MGRM-C-028 Env (pseudovirus) (HIV-1); assay: cell-based or functional assay
# [6] = target: HIV-1 Env of isolate MGRM-C-008 (HIV-1); assay: cell-based or functional assay
# [7] = target: HIV-1 Env of pseudovirus isolate MGRM-G-015 (HIV-1); assay: cell-based or functional assay
# [8] = target: HIV-1 MGRM-A-010 Env (pseudovirus) (HIV-1); assay: cell-based or functional assay
# [9] = target: HIV-1 MGRM-C-027 Env (pseudovirus) (HIV-1); assay: cell-based or functional assay
# [10] = target: HIV-1 Env of isolate MGRM-C-012 (HIV-1); assay: cell-based or functional assay
# [11] = target: HIV-1 NL43 Env (pseudovirus) (HIV-1); assay: cell-based or functional assay
# [12] = target: HIV-1 Env of isolate MGRM-C-007 (HIV-1); assay: cell-based or functional assay
# [13] = target: HIV-1 Env of isolate MGRM-C-020 (HIV-1); assay: cell-based or functional assay
# [14] = target: HIV-1 92RW020 Env (pseudovirus) (HIV-1); assay: cell-based or functional assay
# [15] = target: HIV-1 Env of pseudovirus isolate MGRM-G-014 (HIV-1); assay: cell-based or functional assay
# [16] = target: HIV-1 94UG103 Env (pseudovirus) (HIV-1); assay: cell-based or functional assay
# [17] = target: HIV-1 Env of isolate MGRM-C-006 (HIV-1); assay: cell-based or functional assay
# [18] = target: HIV-1 Env of pseudovirus isolate MGRM-G-027 (HIV-1); assay: cell-based or functional assay
# [19] = target: HIV-1 Env of isolate MGRM-C-019 (HIV-1); assay: cell-based or functional assay
# [20] = target: HIV-1 Env of isolate MGRM-C-013 (HIV-1); assay: cell-based or functional assay
# [21] = target: HIV-1 APV6 Env (pseudovirus) (HIV-1); assay: cell-based or functional assay
# [22] = target: HIV-1 Env of isolate MGRM-C-023 (HIV-1); assay: cell-based or functional assay
# [23] = target: HIV-1 92UG005 Env (pseudovirus) (HIV-1); assay: cell-based or functional assay
# [24] = target: HIV-1 Env of isolate MGRM-C-022 (HIV-1); assay: cell-based or functional assay
# [25] = target: HIV-1 93IN905 Env (pseudovirus) (HIV-1); assay: cell-based or functional assay
# [26] = target: HIV-1 92TH021 Env (pseudovirus) (HIV-1); assay: cell-based or functional assay
# [27] = target: HIV-1 Env of pseudovirus isolate MGRM-G-001 (HIV-1); assay: cell-based or functional assay
# [28] = target: HIV-1 Env of isolate MGRM-C-017 (HIV-1); assay: cell-based or functional assay
# [29] = target: HIV-1 Env of pseudovirus isolate MGRM-G-006 (HIV-1); assay: cell-based or functional assay
# [30] = target: HIV-1 Env of pseudovirus isolate MGRM-G-011 (HIV-1); assay: cell-based or functional assay
# [31] = target: HIV-1 JRCSF Env (pseudovirus) (HIV-1) (UniProt P20871); assay: cell-based or functional assay
# [32] = target: HIV-1 MGRM-C-026 Env (pseudovirus) (HIV-1); assay: cell-based or functional assay
# [33] = target: envelope of aMLV pseudovirus (negative control); assay: cell-based or functional assay
# [34] = target: HIV-1 Env of isolate MGRM-C-009 (HIV-1); assay: cell-based or functional assay
# [35] = target: HIV-1 Env of pseudovirus isolate MGRM-G-013 (HIV-1); assay: cell-based or functional assay
# [36] = target: HIV-1 Env of pseudovirus isolate MGRM-G-009 (HIV-1); assay: cell-based or functional assay
# [37] = target: HIV-1 Env of pseudovirus isolate MGRM-G-019 (HIV-1); assay: cell-based or functional assay
# [38] = target: HIV-1 Env of isolate MGRM-C-002 (HIV-1); assay: cell-based or functional assay
# [39] = target: HIV-1 Env of isolate MGRM-C-015 (HIV-1); assay: cell-based or functional assay
# [40] = target: HIV-1 Env of isolate MGRM-C-024 (HIV-1); assay: cell-based or functional assay
# [41] = target: HIV-1 MGRM-D-018 Env (pseudovirus) (HIV-1); assay: cell-based or functional assay
# [42] = target: HIV-1 Env of pseudovirus isolate MGRM-G-017 (HIV-1); assay: cell-based or functional assay
# [43] = target: HIV-1 92UG024 Env (pseudovirus) (HIV-1); assay: cell-based or functional assay
# [44] = target: HIV-1 Env of pseudovirus isolate MGRM-G-016 (HIV-1); assay: cell-based or functional assay
# [45] = target: HIV-1 Env of isolate MGRM-C-004 (HIV-1); assay: cell-based or functional assay
# [46] = target: HIV-1 Env of isolate MGRM-C-001 (HIV-1); assay: cell-based or functional assay
# [47] = target: HIV-1 Env of pseudovirus isolate MGRM-G-004 (HIV-1); assay: cell-based or functional assay
# [48] = target: HIV-1 Env of isolate MGRM-C-005 (HIV-1); assay: cell-based or functional assay
# WT JR-FL gp120 (HIV-1) = assay: ELISA, antigen-coated wells
substance,measurement,setting,value
4877_D15 (PGT-122) (antibody),neutralization IC50,[1],> 50 µg/mL
same,neutralization IC50,[2],> 50 µg/mL
same,neutralization IC50,[3],8.69 µg/mL
same,neutralization IC50 (pseudovirus),[4],> 10 µg/mL
same,neutralization IC50 (pseudovirus),[5],2.06 µg/mL
same,neutralization IC50,[6],0.028 µg/mL
same,"IC50 (µg/mL), pseudovirus neutralization",[7],> 50 µg/mL
same,neutralization IC50 (pseudovirus),[8],1.68 µg/mL
same,neutralization IC50 (pseudovirus),[9],0.0388 µg/mL
same,neutralization IC50,[10],2 µg/mL
same,neutralization IC50 (pseudovirus),[11],> 10 µg/mL
same,neutralization IC50,[12],3.35 µg/mL
same,neutralization IC50,[13],14 µg/mL
same,neutralization IC50 (pseudovirus),[14],0.0072 µg/mL
same,"IC50 (µg/mL), pseudovirus neutralization",[15],0.008 µg/mL
same,neutralization IC50 (pseudovirus),[16],1.46 µg/mL
same,neutralization IC50,[17],0.018 µg/mL
same,"IC50 (µg/mL), pseudovirus neutralization",[18],0.606 µg/mL
same,neutralization IC50,[19],> 50 µg/mL
same,neutralization IC50,[20],32.6 µg/mL
same,neutralization IC50 (pseudovirus),[21],0.0851 µg/mL
same,neutralization IC50,[22],0.027 µg/mL
same,neutralization IC50 (pseudovirus),[23],> 10 µg/mL
same,neutralization IC50,[24],0.012 µg/mL
same,neutralization IC50 (pseudovirus),[25],0.0138 µg/mL
same,neutralization IC50 (pseudovirus),[26],> 10 µg/mL
same,"IC50 (µg/mL), pseudovirus neutralization",[27],0.005 µg/mL
same,neutralization IC50,[28],0.015 µg/mL
same,"IC50 (µg/mL), pseudovirus neutralization",[29],> 50 µg/mL
same,"IC50 (µg/mL), pseudovirus neutralization",[30],31.3 µg/mL
same,neutralization IC50 (pseudovirus),[31],0.0727 µg/mL
same,neutralization IC50 (pseudovirus),[32],0.0089 µg/mL
same,"IC50 (µg/mL), pseudovirus neutralization",[33],> 50 µg/mL
same,neutralization IC50,[34],> 50 µg/mL
same,"IC50 (µg/mL), pseudovirus neutralization",[35],3.45 µg/mL
same,"IC50 (µg/mL), pseudovirus neutralization",[36],0.514 µg/mL
same,"IC50 (µg/mL), pseudovirus neutralization",[37],0.016 µg/mL
same,neutralization IC50,[38],0.022 µg/mL
same,neutralization IC50,[39],> 50 µg/mL
same,neutralization IC50,[40],0.102 µg/mL
same,neutralization IC50 (pseudovirus),[41],0.0115 µg/mL
same,"IC50 (µg/mL), pseudovirus neutralization",[42],0.032 µg/mL
same,neutralization IC50 (pseudovirus),[43],> 10 µg/mL
same,"IC50 (µg/mL), pseudovirus neutralization",[44],> 50 µg/mL
same,neutralization IC50,[45],0.02 µg/mL
same,neutralization IC50,[46],19.1 µg/mL
same,"IC50 (µg/mL), pseudovirus neutralization",[47],2.15 µg/mL
same,neutralization IC50,[48],0.027 µg/mL
same,EC50,WT JR-FL gp120 (HIV-1),0.3 µg/mL
5123_A06 (PGT-125) (antibody),neutralization IC50,[1],> 50 µg/mL
same,neutralization IC50,[2],> 50 µg/mL
same,neutralization IC50,[3],42.5 µg/mL
same,neutralization IC50 (pseudovirus),[4],> 10 µg/mL
same,neutralization IC50 (pseudovirus),[5],5.78 µg/mL
same,neutralization IC50,[6],> 50 µg/mL
same,"IC50 (µg/mL), pseudovirus neutralization",[7],> 50 µg/mL
same,neutralization IC50 (pseudovirus),[8],0.0055 µg/mL
same,neutralization IC50 (pseudovirus),[9],> 10 µg/mL
same,neutralization IC50,[10],> 50 µg/mL
same,neutralization IC50 (pseudovirus),[11],> 10 µg/mL
same,neutralization IC50,[12],> 50 µg/mL
same,neutralization IC50,[13],> 50 µg/mL
same,neutralization IC50 (pseudovirus),[14],0.0028 µg/mL
same,"IC50 (µg/mL), pseudovirus neutralization",[15],0.007 µg/mL
same,neutralization IC50 (pseudovirus),[16],0.0124 µg/mL
same,neutralization IC50,[17],0.015 µg/mL
same,"IC50 (µg/mL), pseudovirus neutralization",[18],34.4 µg/mL
same,neutralization IC50,[19],0.13 µg/mL
same,neutralization IC50,[20],> 50 µg/mL
same,neutralization IC50 (pseudovirus),[21],0.0359 µg/mL
same,neutralization IC50,[22],1.31 µg/mL
same,neutralization IC50 (pseudovirus),[23],> 10 µg/mL
same,neutralization IC50,[24],1.23 µg/mL
same,neutralization IC50 (pseudovirus),[25],0.0137 µg/mL
same,neutralization IC50 (pseudovirus),[26],0.0066 µg/mL
same,"IC50 (µg/mL), pseudovirus neutralization",[27],0.033 µg/mL
same,neutralization IC50,[28],2.36 µg/mL
same,"IC50 (µg/mL), pseudovirus neutralization",[29],> 50 µg/mL
same,"IC50 (µg/mL), pseudovirus neutralization",[30],> 50 µg/mL
same,neutralization IC50 (pseudovirus),[31],0.006 µg/mL
same,neutralization IC50 (pseudovirus),[32],0.0106 µg/mL
same,"IC50 (µg/mL), pseudovirus neutralization",[33],> 50 µg/mL
same,neutralization IC50,[34],> 50 µg/mL
same,"IC50 (µg/mL), pseudovirus neutralization",[35],> 50 µg/mL
same,"IC50 (µg/mL), pseudovirus neutralization",[36],> 50 µg/mL
same,"IC50 (µg/mL), pseudovirus neutralization",[37],> 50 µg/mL
same,neutralization IC50,[38],0.008 µg/mL
same,neutralization IC50,[39],> 50 µg/mL
same,neutralization IC50,[40],> 50 µg/mL
same,neutralization IC50 (pseudovirus),[41],0.0382 µg/mL
same,"IC50 (µg/mL), pseudovirus neutralization",[42],> 50 µg/mL
same,neutralization IC50 (pseudovirus),[43],> 10 µg/mL
same,"IC50 (µg/mL), pseudovirus neutralization",[44],> 50 µg/mL
same,neutralization IC50,[45],1.82 µg/mL
same,neutralization IC50,[46],> 50 µg/mL
same,"IC50 (µg/mL), pseudovirus neutralization",[47],> 50 µg/mL
same,neutralization IC50,[48],2.09 µg/mL
same,EC50,WT JR-FL gp120 (HIV-1),0.2 µg/mL
